Data from the Human Domainome abundance scans (Beltran et al. 2025).

B1: Zinc finger MYM-type protein 3, residues 589 to 668; numbered along this chain, Q14202 (parent)
chain: LSCHYCHSLFSGKPEVLDWQDQVFQFCCRDCCEDFKRLRGVVSQCEHCRQEKLLHEKLRFSGVEKSFCSEGCVLLYKQDF
B2: Nucleolar transcription factor 1, residues 408 to 469; numbered along this chain, P17480 (parent)
chain: KRPVSAMFIFSEEKRRQLQEERPELSESELTRLLARMWNDLSEKKKAKYKAREAALKAQSER

Variants of: B1
Assay: abundance fitness (aPCA) (normalised: wild type 0, dead -1); higher = more abundant; growth selection in yeast, the domain comes from the species named
Settings: Homo sapiens

Abundance fitness: each site, then its substitutions
L74: G 0.183, H 0.041, I -0.381, M 0.292, N 0.453, P -0.205, Q 0.244, R 0.484, S -0.081, T 0.151, V -0.195, W 0.081, Y -0.446
L75: A 0.615, C 0.373, D 0.492, E 0.268, G 0.276, H -0.295, K 0.318, M 0.176, N 0.227, P -0.268, Q 0.573, S 0.258, T -0.078, V -0.551, W -0.561
Y76: D -0.176, E -0.107, G -0.28, H 0.329, K -0.048, L -0.663, M -0.524, N 0.757, Q -0.179, S -0.473, T -0.038, V -0.317, W -0.542
K77: A -0.78, E -0.406, F -0.394, G -0.404, L -0.304, P -0.71, Q -0.149, R -0.455, S -0.495, T -0.108, V -0.193
Q78: A 0.034, C -0.892, D 0.567, E 0.018, G -0.292, H 0.565, I -0.34, L 0.466, M -0.372, P -0.595, R 0.113, S 0.069, T -0.188, V -0.833, W -0.698
D79: A 0.089, E 0.018, G 0.187, K 0.856, L 0.034, P 0.119, Q 0.475, R 0.351, S 0.241, T -0.07, V -0.531, W -0.378
F80: A 0.288, C 0.093, G 0.033, L 0.5, M 0.294, P 0.525, R 0.522, S 0.194, T 0.652, V 0.281, W -0.146

Variants of: B2
Assay: as above
Settings: Homo sapiens

Abundance fitness of substitutions, site by site:
K1: A -0.287, C -0.367, D 0.006, E -0.139, F -0.245, G -0.08, H -0.212, I 0, L -0.048, M 0.004, N -0.191, Q -0.196, R -0.199, S -0.276, T -0.06, V -0.136, W -0.205, Y -0.105
R2: A -0.151, C -0.178, D -0.109, E -0.132, F -0.043, G -0.204, H -0.025, I -0.158, L -0.215, M -0.13, N -0.003, Q -0.317, S -0.072, T -0.143, V -0.049, W -0.453, Y 0.01
P3: A -0.137, C -0.264, D -0.04, E -0.059, F -0.021, G -0.083, H -0.061, I 0.036, L -0.068, Q -0.011, R -0.095, S -0.014, T 0.021, V -0.02, W -0.297, Y -0.071
V4: A -0.061, C -0.213, D -0.011, E 0.037, F -0.156, G -0.094, H -0.172, I -0.018, K -0.053, L -0.031, M -0.031, N -0.104, P -0.238, Q -0.099, R -0.24, S -0.082, T -0.111, W -0.602, Y -0.099
S5: C -0.148, D -0.02, E 0.042, G -0.031, I -0.178, K -0.041, L -0.164
